In data set [1] the target is SARS-CoV-2 spike protein Delta (SARS-CoV-2 (Delta variant)) (UniProt P0DTC2). In words: streptavidin bead fluorescence binding.
For data set [2] the target is unchanged. In words: flow cytometry on Ni-NTA beads.

Take “CGCAGCACCCAAGAACAAGGACTGCTTAGGATTGCGATAGGTTCGGAAAAAAGGCGGGTTCCTAGACTTGTACTCAGCCT [S1B6C3-A5-S2A2C1]”: the Kd in data set [1] was 34.1 nM; in data set [2], 32.6 nM.

For the origin of these results see PMC9330529.
